Source: patent publication US20210332138A1 (published 2021)
Where two headings read alike, the source gives them in different places. Each block holds one binder with its values, some of them ahead of it.

What was measured:
[1] = molecular target: T1, hPDL1 expressed on 293T cells (human, UniProt Q9NZQ7 19-290); assay: FACS
[2] = molecular target: T2, hPDL1-Fc fusion protein (human, UniProt Q9NZQ7 19-238); assay: ELISA
[3] = molecular target: T2, hPDL1-Fc fusion protein; assay: BIAcore
[4] = molecular target: T2, hPDL1-Fc fusion protein; assay: ELISA; FIG. 11B
[5] = molecular target: T2, hPDL1-Fc fusion protein; assay: ELISA; FIG. 11C
[6] = molecular target: T2, hPDL1-Fc fusion protein; assay: RBA; PD1 coated
[7] = molecular target: T2, hPDL1-Fc fusion protein; assay: RBA; PDL1 coated
[8] = molecular target: T2, hPDL1-Fc fusion protein; assay: receptor blocking ELISA; hPD1-Fc coated
[9] = molecular target: T2, hPDL1-Fc fusion protein; assay: receptor blocking ELISA; hPDL1-Fc coated
[10] = molecular target: T1, hPDL1 expressed on 293T cells; assay: FACS; remark: listed apart in the source

T2 sequence (Q9NZQ7 19-238): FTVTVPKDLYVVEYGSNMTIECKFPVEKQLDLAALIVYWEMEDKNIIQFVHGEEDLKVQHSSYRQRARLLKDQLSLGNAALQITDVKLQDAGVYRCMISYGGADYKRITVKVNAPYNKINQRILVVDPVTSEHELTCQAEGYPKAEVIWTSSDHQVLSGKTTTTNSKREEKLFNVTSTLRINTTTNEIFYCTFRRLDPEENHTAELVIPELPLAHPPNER
T1 sequence (Q9NZQ7 19-290): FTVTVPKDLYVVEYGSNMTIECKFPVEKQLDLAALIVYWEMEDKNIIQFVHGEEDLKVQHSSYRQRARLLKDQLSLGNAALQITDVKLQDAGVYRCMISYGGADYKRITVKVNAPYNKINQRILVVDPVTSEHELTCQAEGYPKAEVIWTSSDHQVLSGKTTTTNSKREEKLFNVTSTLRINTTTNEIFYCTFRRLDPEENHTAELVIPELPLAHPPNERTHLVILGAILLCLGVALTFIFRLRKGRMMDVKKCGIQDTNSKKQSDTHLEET

EC50 [1]: 0.356 nM
EC50 [2]: 0.0391 nM
Kd [3]: 4.46 nM
EC50 [4]: 0.0391 nM
EC50 [5]: 0.0247 nM
IC50 [6]: 1.26 nM
IC50 [7]: 1.53 nM
IC50 [8]: 1.53 nM
IC50 [9]: 1.26 nM
B1: full-length antibody 4-1E8 (antibody, V domains shown)
VH: QIQLVQSGAEVKMPGASVTISCEASGYNFISYYIHWVRQAPGQGLEWMGFVVPSGGAAGYTQKFQGRLTVTRDTSTSTVYMDLNSLTSDDTAVYYCVREMSGGWFDFWGQGTLVTVSS
VL: DIVMTQSPSSLSASVGDRVTITCRASQGIRNDLGWYQQKPGKAPKLLIYAASTLQSGVPSRFSGSGSGTDFTLTISSLQAEDVAVYYCQQYYSTPLTFGPGTKVDIK

EC50 [10]: 0.132 nM
EC50 [1]: 0.132 nM
EC50 [2]: 0.018 nM
Kd [3]: 2.32 nM
EC50 [5]: 0.018 nM
IC50 [6]: 1.39 nM
IC50 [7]: 0.795 nM
B2: full-length antibody 3-1B11 (antibody, V domains shown)
VH: EVQLVESGGGLVQPGGSLRLSCAASGFTFSDYDMIWVRQAPGKGLEWVAVISYDGSNKYYADSVKGRFTISRDNSKNTLYLQMNSLRAEDTAVYYCAKEFFGAFDIWGQGTMVTVSS
VL: SSELTQDPAVSVALGQTVTITCQGDSLNYYYANWFQLKPGQAPVLVLFGKNNRPSGIPDRFSGSYSGSTASLTITGAQAEDDADYYCNSRDSGGNPWVFGGGTKLTVL

EC50 [1]: 3.15 nM
EC50 [2]: 0.9 nM
EC50 [4]: 0.9 nM
IC50 [6]: 92.7 nM
IC50 [7]: 16.6 nM
IC50 [8]: 16.6 nM
IC50 [9]: 92.7 nM
B3: full-length antibody 3-1E4 (antibody, V domains shown)
VH: QIQLVQSGAEVKKPGSSVKVSCKASGGTFSSYAISWVRQAPGQGLEWMGGIIPIFGTANYAQKFQGRVTITADKSTSTAYMELSSLRSEDTAVYYCAGGGAVADNSYWGQGTLVTVSS
VL: DIRMTQSPSSLSASVGDRVTITCRASQGIRNDLGWYQQKPGKAPKLLIYAASSLQSGVPSRFSGSGSGTDFTLTISSLQPEDFATYYCLQDYNYPRTFGQGTKVEIK
